Measurements reported in publication PMC9136605 (Acta Pharmaceutica Sinica. B, 2021).

Molecular target: the molecule itself
Experiment: crystal structure

B1: human LDHC L56E/I332Q double mutant (LDHC-mutant), recombinant with C-terminal His6-tag (enzyme)
chain: not shown
stoichiometry N: 4
